Measured values as given in the supplement of paper PMC10724198.
± gives the standard deviation of the averaged measurements.
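Also: PSI is a weighted mean of sequencing reads over stability bins, variants kept only with over 10 reads, mCherry proximal and sfGFP distal, peptide attached via GGGS linker.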

Each sequence was assayed on Saccharomyces cerevisiae (assay: protein stability index of tFT-peptide fusion (C-terminal peptide) (PSI (0-1 scale)); higher = more stable (slower turnover)). Details: genetic background: wild type; temperature: 30 C.
PRALCPPPSPST gave a protein stability index of 0.697 ± 0.043. PRAPRVSTRRPE was tested, and the protein stability index was 0.793 ± 0.083. For PRASPPPLPPSP, the protein stability index was 0.717 ± 0.032. PRCSVYPITGPY was tested, and the protein stability index was 0.682 ± 0.046. With PRFLGWGGCLWV the protein stability index was 0.7265 ± 0.0045. With PRGGLGTGWGRR the protein stability index was 0.731 ± 0.079. Sequence PRGILLATPEGH has a protein stability index of 0.684 ± 0.021. In the case of PRHCYIPLPLLP, the protein stability index is reported as 0.661 ± 0.021. For PRHISIHPNATP, the protein stability index was 0.705 ± 0.045. PRLLPFPPPLDH was tested, and the protein stability index was 0.735 ± 0.083. PRLPGPAAIARR gave a protein stability index of 0.6714 ± 0.004. Work on PRLQLHSDPNCS yielded a protein stability index of 0.733 ± 0.087. With PRLSPPSSPGPP the protein stability index was 0.631 ± 0.03. Sequence PRLVHGFPRFHP has a protein stability index of 0.669 ± 0.033. With PRPFPLSCSPPV the protein stability index was 0.751 ± 0.083. PRPHRLPPRPFH gave a protein stability index of 0.6917 ± 0.0064. Work on PRPPAPPDPAPP yielded a protein stability index of 0.746 ± 0.072. PRPPLRPPPISP gave a protein stability index of 0.68 ± 0.066. In the case of PRPPPLPPQTSS, the protein stability index is reported as 0.73 ± 0.1. In the case of PRPPPSPPPILP, the protein stability index is reported as 0.676 ± 0.0072. PRPPPSPTPPLT was tested, and the protein stability index was 0.69 ± 0.095. With PRPPRPPRPPLP the protein stability index was 0.66 ± 0.016. In the case of PRPPTPPTTILN, the protein stability index is reported as 0.652 ± 0.032. Work on PRPPYHAPSTFP yielded a protein stability index of 0.575 ± 0.074. PRPRQPPPPPPP was tested, and the protein stability index was 0.689 ± 0.0076. In the case of PRPRSPSPPLPP, the protein stability index is reported as 0.705 ± 0.01. PRPRTPPPLLSF showed a protein stability index of 0.687 ± 0.057. Sequence PRPSRILPLPAP has a protein stability index of 0.65 ± 0.0072. PRRLFFFFFLSG gave a protein stability index of 0.656 ± 0.017. PRRPLPTISCPS was tested, and the protein stability index was 0.618 ± 0.005. PRRSPPCSTPPP was tested, and the protein stability index was 0.726 ± 0.077. With PRRVGRLGAPMG the protein stability index was 0.719 ± 0.11. In the case of PRSAAQSQMRRK, the protein stability index is reported as 0.711 ± 0.056. For PRSCPPFLPSLP, the protein stability index was 0.727 ± 0.0099. Sequence PRSRPTCYSRPG has a protein stability index of 0.702 ± 0.04. In the case of PRSSSRAGRTGT, the protein stability index is reported as 0.712 ± 0.031. Work on PRSSTSFLPSFL yielded a protein stability index of 0.678 ± 0.064. In the case of PRSVPLCALLSL, the protein stability index is reported as 0.654 ± 0.024. Sequence PRVPLPPPHPLH has a protein stability index of 0.728 ± 0.073. PRVTPRFSKHAL showed a protein stability index of 0.724 ± 0.016. PSALPLFWSELF gave a protein stability index of 0.661 ± 0.022. For PSALSSSAPSSP, the protein stability index was 0.667 ± 0.043. Work on PSCFNAPRHPPT yielded a protein stability index of 0.749 ± 0.076. For PSCRPPLLHPDS, the protein stability index was 0.721 ± 0.0094. PSFLTGRPISPV showed a protein stability index of 0.677 ± 0.018. For PSGRPPGHDNLV, the protein stability index was 0.666 ± 0.045. In the case of PSHAAPVPAPQP, the protein stability index is reported as 0.628 ± 0.079. For PSHTPNHTGYPD, the protein stability index was 0.681 ± 0.02. Sequence PSILPPPSSCPP has a protein stability index of 0.767 ± 0.041. PSIMLSSLPPPP gave a protein stability index of 0.696 ± 0.065. Work on PSKGKYKKMGPR yielded a protein stability index of 0.661 ± 0.076. In the case of PSLLPLLPLPPP, the protein stability index is reported as 0.685 ± 0.038. In the case of PSLLPSRPPRSI, the protein stability index is reported as 0.648 ± 0.034. Work on PSLPCPVLVFSL yielded a protein stability index of 0.462 ± 0.054. PSLPPLPPAPLL was tested, and the protein stability index was 0.726 ± 0.039. For PSLSSPQLLLTL, the protein stability index was 0.685 ± 0.01. PSNDNTMIPILE gave a protein stability index of 0.656 ± 0.04. PSPALLILPPYS was tested, and the protein stability index was 0.672 ± 0.016. PSPFDTPPSSGQ showed a protein stability index of 0.722 ± 0.026. For PSPFPLPLSFAR, the protein stability index was 0.538 ± 0.047. Work on PSPHTPPHTFLL yielded a protein stability index of 0.755 ± 0.0022. With PSPLAPPLPPPS the protein stability index was 0.701 ± 0.015. Work on PSPLLSPPPPRP yielded a protein stability index of 0.706 ± 0.024. With PSPLPSSGHPPP the protein stability index was 0.6206 ± 0.0046. For PSPLSLIPSSRP, the protein stability index was 0.663 ± 0.095. PSPMHPSAHFST gave a protein stability index of 0.67613 ± 0.00039. For PSPPAPFPLVPT, the protein stability index was 0.607 ± 0.032. Sequence PSPPAPLSLLLP has a protein stability index of 0.645 ± 0.074. PSPPAQSASLFF was tested, and the protein stability index was 0.663 ± 0.02. PSPPLPPPPSPY was tested, and the protein stability index was 0.72 ± 0.1. With PSPPPAVLPPPP the protein stability index was 0.693 ± 0.039. Work on PSPPPLLAPSPL yielded a protein stability index of 0.683 ± 0.096. Work on PSPPPLLTRPLP yielded a protein stability index of 0.713 ± 0.1. Sequence PSPPPPHPSALT has a protein stability index of 0.648 ± 0.012. Work on PSPPPPPPHPAP yielded a protein stability index of 0.694 ± 0.035. For PSPPPPPRTFPN, the protein stability index was 0.6756 ± 0.0064. PSPPPSPPPRHF gave a protein stability index of 0.6924 ± 0.0046. For PSPPPTPPPPTP, the protein stability index was 0.793 ± 0.096. Sequence PSPPTPLPSRLF has a protein stability index of 0.7829 ± 0.0037. For PSPRPPPPPPSA, the protein stability index was 0.705 ± 0.009. With PSPSGRGLAIAP the protein stability index was 0.688 ± 0.013.
